94 variants from the supplement of paper PMC10567573 can be followed below.

B1: RAB11B (parent)
chain: AVPTDEARAFAEKNNLSFIETSAL
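Further: lentivirally expressed fusions sorted by FACS into six bins by GFP to DsRed ratio, PSI derived from sequencing read proportions per bin multiplied by bin number.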

The series covers variants of B1. Kind of series: protein stability index of a GFP-peptide fusion (GPS, HEK-293T) (PSI 1-6); higher = more stable. Conditions: c terminus: a fixed tail appended.
As for AVPTDEAIAFAEKNNLSFIETSAL [R8I], the protein stability index stood at 2.9. With AVPTDEACAFAEKNNLSFIETSAL [R8C] the figure was 2.78.

Regarding AVPTDEAFAFAEKNNLSFIETSAL [R8F], the protein stability index came out at 2.69. To AVPTDEAVAFAEKNNLSFIETSAL [R8V] belongs 3.04; to AVPTDEAHAFAEKNNLSFIETSAL [R8H], 2.99; to AVPTDEAMAFAEKNNLSFIETSAL [R8M], 2.45. To AVPTDEAQAFAEKNNLSFIETSAL [R8Q] belongs 2.45; to AVPMDEARAFAEKNNLSFIETSAL [T4M], 1.98; to AVPFDEARAFAEKNNLSFIETSAL [T4F], 2. With AVPYDEARAFAEKNNLSFIETSAL [T4Y] the figure was 2.37.

With AVPKDEARAFAEKNNLSFIETSAL [T4K], the protein stability index amounted to 2. With AVPEDEARAFAEKNNLSFIETSAL [T4E] the figure was 3.23; with AVPSDEARAFAEKNNLSFIETSAL [T4S], 2.6. With AVPRDEARAFAEKNNLSFIETSAL [T4R] the figure was 1.77; with AVPDDEARAFAEKNNLSFIETSAL [T4D], 3.63.

Regarding AVPADEARAFAEKNNLSFIETSAL [T4A], the protein stability index was found to be 2.45. Turning to AVPGDEARAFAEKNNLSFIETSAL [T4G], the protein stability index stood at 3.17. With AVPCDEARAFAEKNNLSFIETSAL [T4C] the figure was 2.78.

AVPTDEARAFGEKNNLSFIETSAL [A11G]: the protein stability index came to 2.16. With AVPTDEARAFQEKNNLSFIETSAL [A11Q] the figure was 2.85.

In the case of AVPTDEARAFCEKNNLSFIETSAL [A11C], the protein stability index is 3.16.

As to AVPTDEARAFHEKNNLSFIETSAL [A11H], the protein stability index amounted to 2.3.

In the case of AVPTDEARAFPEKNNLSFIETSAL [A11P], the protein stability index was determined as 2.8.

As to AVPTDEARAFVEKNNLSFIETSAL [A11V], the protein stability index worked out at 2.3.

On to AVPTDEARAFYEKNNLSFIETSAL [A11Y], for which the protein stability index stood at 2.15. Regarding AVPTDEARAFMEKNNLSFIETSAL [A11M], the protein stability index turned out to be 2.8.

As to AVPTDEARAFREKNNLSFIETSAL [A11R], the protein stability index is 2.35. With AVPTDEARAFKEKNNLSFIETSAL [A11K] the figure was 2.19; with AVPTDEARAFDEKNNLSFIETSAL [A11D], 3.88; with AVPTDEARAFAEKNNKSFIETSAL [L16K], 4.62. Consider AVPTDEARAFAEKNNISFIETSAL [L16I], for which the protein stability index is 3.95. To AVPTDAARAFAEKNNLSFIETSAL [E6A] belongs 2.45; to AVPTDKARAFAEKNNLSFIETSAL [E6K], 2.04; to AVPTDDARAFAEKNNLSFIETSAL [E6D], 2.95. In the case of AVPTDHARAFAEKNNLSFIETSAL [E6H], the protein stability index was 2.61.

With AVPTDIARAFAEKNNLSFIETSAL [E6I], the protein stability index was 2.71. With AVPTDQARAFAEKNNLSFIETSAL [E6Q], the protein stability index was found to be 2.24. To AVPTDCARAFAEKNNLSFIETSAL [E6C] belongs 2.46; to AVPTDPARAFAEKNNLSFIETSAL [E6P], 2.93. To AVPTDNARAFAEKNNLSFIETSAL [E6N] belongs 2.25; to AVPTDEARAFAEKNNLSFSETSAL [I19S], 4.56. Turning to AVPTDEARAFAEKNNLSFVETSAL [I19V], the protein stability index stood at 3.26.

With AVPTDEARAFAEKNNLSFFETSAL [I19F], the protein stability index worked out at 4.37.

With AVPTDEARAFAEKNNLSFQETSAL [I19Q], the protein stability index amounted to 4.38. To AVPTDEARAFAEKNNLSFKETSAL [I19K] belongs 4.79. AVPTDEARAFAEKNNLSFMETSAL [I19M]: the protein stability index is 4.21.

On to AVPTDEARAFAEKNNLSFLETSAL [I19L], for which the protein stability index is 3.25. To AVPTDEARAFAEKNNLSFNETSAL [I19N] belongs 4.1; to AVPTDEARAFAEKNNLSFGETSAL [I19G], 4.64; to AVPTDEARAFAEKNNLSFWETSAL [I19W], 3.62. To AVPTDEARAFAEKNNLSFHETSAL [I19H] belongs 3.49; to AVPTDEARAFAEKNNLSFTETSAL [I19T], 4.11. With AVPTDEARAFARKNNLSFIETSAL [E12R] the figure was 2.15. Turning to AVPTDEARAFAHKNNLSFIETSAL [E12H], the protein stability index stood at 2.65. With AVPTDEARAFAIKNNLSFIETSAL [E12I] the figure was 1.99; with AVPTDEARAFALKNNLSFIETSAL [E12L], 2.02. To AVPTDEARAFAGKNNLSFIETSAL [E12G] belongs 2.16; to AVPTDEARAFADKNNLSFIETSAL [E12D], 2.81.

As to AVPTDEARAFAVKNNLSFIETSAL [E12V], the protein stability index turned out to be 2.47.

With AVPTDEARAFAPKNNLSFIETSAL [E12P], the protein stability index amounted to 2.34. Consider AVPTDEARAFACKNNLSFIETSAL [E12C], for which the protein stability index came out at 1.91. Consider AVPTDEARAFAQKNNLSFIETSAL [E12Q], for which the protein stability index was 2.52. With AVPTDEARCFAEKNNLSFIETSAL [A9C] the figure was 2.49; with AVPTDEARLFAEKNNLSFIETSAL [A9L], 2.98; with AVPTDEARWFAEKNNLSFIETSAL [A9W], 1.78. AVPTDEARSFAEKNNLSFIETSAL [A9S]: the protein stability index stood at 2.33. As for AVPTDEARQFAEKNNLSFIETSAL [A9Q], the protein stability index was found to be 3.14.

Turning to AVPTDEAREFAEKNNLSFIETSAL [A9E], the protein stability index worked out at 3.82. In the case of AVATDEARAFAEKNNLSFIETSAL [P3A], the protein stability index turned out to be 2.93. With AVFTDEARAFAEKNNLSFIETSAL [P3F] the figure was 1.96; with AVQTDEARAFAEKNNLSFIETSAL [P3Q], 3.16. With AVDTDEARAFAEKNNLSFIETSAL [P3D], the protein stability index was 3.28. As to AVITDEARAFAEKNNLSFIETSAL [P3I], the protein stability index is 2.63. To AVTTDEARAFAEKNNLSFIETSAL [P3T] belongs 3.17; to AVYTDEARAFAEKNNLSFIETSAL [P3Y], 2.55. With AVNTDEARAFAEKNNLSFIETSAL [P3N] the figure was 3.27; with AVPTDEARAFAECNNLSFIETSAL [K13C], 2.47.

As to AVPTDEARAFAEYNNLSFIETSAL [K13Y], the protein stability index amounted to 1.88. To AVPTDEARAFAETNNLSFIETSAL [K13T] belongs 2.63; to AVPTDEARAFAEHNNLSFIETSAL [K13H], 2.24; to AVPTDEARAFAEDNNLSFIETSAL [K13D], 3.24. AVPTDEARAFAELNNLSFIETSAL [K13L]: the protein stability index is 2.14. As for AVPTDEARAFAEKNNLSFIETGAL [S22G], the protein stability index amounted to 2.85. To AVPTDEARAFAEKNNLSFIETMAL [S22M] belongs 2.83; to AVPTDEARAFAEKNNLSFIETQAL [S22Q], 3.56; to AVPTDEARAFAEKNNLSFIETFAL [S22F], 2.52. With AVPTDEARAFAEKNNLSFIETPAL [S22P] the figure was 4.02; with AVPTDEARAFAEKNNLSFIETRAL [S22R], 3.13; with AVPTDEARAFAEKNNLSFIETIAL [S22I], 2.49. Take AVPTDEARAFAEKNNLSFIETTAL [S22T]: the protein stability index worked out at 2.98.

On to AVPTDEARAFAEKNNLSFIETWAL [S22W], for which the protein stability index was found to be 2.91. To AVPTDEARAFAEKNNLSFIETYAL [S22Y] belongs 1.96; to AVPTDEARAFAEKNNLSFIETSAI [L24I], 3.5. To AVPTDEARAFAEKNNLSFIETSAW [L24W] belongs 2.47.
